Reference: patent US20180201910

T1: ferredoxin encoded by FD gene 1 (Fd5), YP_001864105, Nostoc punctiforme PCC 73102
T1 chain: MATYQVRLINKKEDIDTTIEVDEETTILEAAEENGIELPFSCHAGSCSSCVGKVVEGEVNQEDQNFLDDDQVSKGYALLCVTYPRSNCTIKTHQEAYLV

T2: ferredoxin encoded by FD gene 3 (Fd7), YP_001865513, Nostoc punctiforme PCC 73102
T2 chain: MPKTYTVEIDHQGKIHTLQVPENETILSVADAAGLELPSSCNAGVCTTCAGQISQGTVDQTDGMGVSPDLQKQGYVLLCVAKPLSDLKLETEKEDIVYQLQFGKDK

T3: ferredoxin encoded by FD gene 5 (Fd4), YP_001864061, Nostoc punctiforme PCC 73102
T3 chain: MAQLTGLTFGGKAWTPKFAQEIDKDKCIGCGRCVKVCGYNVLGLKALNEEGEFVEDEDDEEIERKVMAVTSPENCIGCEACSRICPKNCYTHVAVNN

T4: ferredoxin encoded by FD gene 2 (Fd6), YP_001864826, Nostoc punctiforme PCC 73102
T4 chain: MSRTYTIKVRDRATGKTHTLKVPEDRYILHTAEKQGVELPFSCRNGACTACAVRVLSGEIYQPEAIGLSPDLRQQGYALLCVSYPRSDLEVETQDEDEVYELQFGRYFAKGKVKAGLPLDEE


Assays:
[1] = target: T1, ferredoxin encoded by FD gene 1 (Fd5), …
[2] = target: T2, ferredoxin encoded by FD gene 3 (Fd7), …
[3] = target: T3, ferredoxin encoded by FD gene 5 (Fd4), …
[4] = target: T4, ferredoxin encoded by FD gene 2 (Fd6), …
[5] = target: ferredoxin encoded by FD gene 4 (Fd8), YP_001867060, Nostoc punctiforme PCC 73102
Chain of ferredoxin encoded by FD gene 4 (Fd8), YP_001867060, Nostoc punctiforme PCC 73102 (chain, as listed by the source): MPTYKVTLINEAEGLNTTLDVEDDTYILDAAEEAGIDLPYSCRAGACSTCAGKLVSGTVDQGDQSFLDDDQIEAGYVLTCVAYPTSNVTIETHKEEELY

Row | Protein | amount of alkane production 3 days after the initiation of culture compared with the amount of Strain No. 2 (E. coli Rosetta co-expressing decarbonylase and acyl-ACP reductase, GC/MS) [1] | amount of alkane production 3 days after the initiation of culture compared with the amount of Strain No. 2 (E. coli Rosetta co-expressing decarbonylase and acyl-ACP reductase, GC/MS) [2] | amount of alkane production 3 days after the initiation of culture compared with the amount of Strain No. 2 (E. coli Rosetta co-expressing decarbonylase and acyl-ACP reductase, GC/MS) [3] | amount of alkane production 3 days after the initiation of culture compared with the amount of Strain No. 2 (E. coli Rosetta co-expressing decarbonylase and acyl-ACP reductase, GC/MS) [4] | amount of alkane production 3 days after the initiation of culture compared with the amount of Strain No. 2 (E. coli Rosetta co-expressing decarbonylase and acyl-ACP reductase, GC/MS) [5] | effects of improving the alkane productivity in the E. coli JM109 strain [2] | effects of improving the alkane productivity in the Klebsiella sp. 100048 strain [2]
1 | ferredoxin reductase encoded by FDR gene 3 (FDR3), YP_001868825, Nostoc punctiforme PCC 73102 (protein) MSFTSMPSLREQQHPLIRQLADCIEAAWHQHLDLSPYHLPDELGYVEGRLEGEKLTIENRCYQTPQFRKMHLELANIGNMLDILHCVMFPRPQYNLPMFGCDLVGGRGQISAAIADLSPIQLERTLPESYTTALAQLPVLNFSQPRELPEWGNIFSDFCIFVRPGSPEEEAMFLSRVREFLDIHCMQAIASHPVSVEQVTQNLAGQHNYCTKQQQNDKTRRVLEKAFGPVWAENYMTTVLFDLPT | x | 2.0 times | x | 3.4 times | x | – | –
2 | ferredoxin reductase encoded by FDR gene 2 (FDR2), YP_001866231, Nostoc punctiforme PCC 73102 (protein) MYNQGAVEGAANIELGSRIFVYEVVGLRQGEETDQTNYPIRKSGSVFIRVPYNRMNQEMRRITRLGGTIVSIQPITALEPVNGKASFGNATSVVSELAKSGETANSEGNGKATPVNAHSAEEQNKDKKGNTMTQAKAKKDHGDVPVNTYRPNAPFIGKVISNEPLVKEGGIGIVQHLKFDLSGGDLKYIEGQSIGIIPPGLDKNGKPEKLRLYSIASTRHGDDVDDKTVSLCVRQLEYKHPETGETVYGVCSTHLCFLKPGEEVKITGPVGKEMLLPNDPDANVIMMATGTGIAPMRAYLWRQFKDAERAANPEYQFKGFSWLIFGVPTTPNLLYKEELEEIQQKYPENFRLTAAISREQKNPQGGRMYIQDRVAEHADELWQLIKNEKTHTYICGLRGMEEGIDAALTAAAAKEGVTWSDYQKQLKKAGRWHVETY | 1.9 times | 3.8 times | x | 2.5 times | 3.0 times | two times greater in the E. coli JM109 strain | 4 times greater than the effects in the Klebsiella sp. 100048 strain
3 | ferredoxin reductase encoded by FDR gene 1 (FDR1), YP_001865390, Nostoc punctiforme PCC 73102 (protein) MNSPVYQTVIVGGGFTGLFTALHLAHEHYPRSVILIDKDERFCFKPLLYEYFDGEMDTFQVVPRFSELLKGSGVIFVQDTVQSINLHQREVKLASGNSYNYSNLVLALGSVTGYHQVEGARENAFPFWTQADAIALDRHLRDCLQKAVQTEDVEQRRKLLTVVIVGGGASGVEMAATLADFLPHWYSALGGNSSEIRVVLLNHGKEILDGDINNPLREIAERELNKRAVPIEMIVEAEATAIGSTSIQYKRNEQIETLATHTTVWTAGTSTHPLIKDLPIPKEHRDRRDRPLVTPNLQLLDFPEVFVGGDCAAVQDNSLPPTAQVAYQQGANIAQNLKALALGEEPKPAKVNIRGTLLKLGINDAAANLFNVFEVVGETAHLIRQGTYLTLLPAPIHDFKATTEWVDEEVFHQHLDPHDVGKKVVQAAEIVGVGVVGILAARKLLKMLGDEDKNSK | 2.5 times | x | x | 2.4 times | 2.6 times | – | –
